{
  "source": "patent US20200324099A1",
  "about": "“ACOUSTIC WAVE MEDIATED NON-INVASIVE DRUG DELIVERY” (Mupharma Pty Ltd, priority 2016, published 2020)",
  "key": {"[1]": {"experiment": "SAW (30 MHz) perfusion of FITC-Albumin and Fluorescein in pig lip tissue (Example Three)", "assay_type": "in vitro ADME", "conditions": "for perfusion into pig lip tissue with SAW: SAW 30 MHz, different exposure times and powers; for passive diffusion into pig lip tissue (control sample): no SAW", "source_text": "In this set of experiments, the effect of surface acoustic wave (SAW) at 30 MHz on FITC-Albumin and Fluorescein perfusion for different SAW powers and operating time was investigated.\nFluorescein sodium salt and FITC-Albumin were purchased from Sigma-Aldrich, Australia. Fresh porcine lips were obtained from diamond valley pork abattoir (Laverton, Melbourne) prior to the experiments. Surface acoustic wave (SAW) chip patterning of Chromium and Aluminum interdigital transducers (IDT) were fabricated using standard lithographic techniques at Micro Nano Research Facility (MNRF), RMIT University.\nThe lips were wrapped in sterile gauze saturated in Krebs buffer during transportation to maintain the viability of the tissues. […] The porcine lips were exposed to various molecules with and without the surface acoustic waves (SAW). The lips were washed immediately after the experiments to get rid of any reminent targeting molecules.\nSamples were wrapped in aluminium foil and stored at −80 degree until dermatomed. The tissues were dermatomed in a cryostat at a thickness of 50-micron layer until 1 mm for extensive penetration studies.\nTissue sectioning was performed at RMIT Bundoora and Melbourne University campuses. Fluorescent images of the samples were obtained using optical microscope (×10 lens), consistent light exposure of 600 ms. Acquired images were then quantified using ImageJ software to calculate the normalized pixel intensity of the green channel.\nThe model drug (FITC-albumin and fluorescein) used was placed directly on the device throughout the experiments. Fresh lips were approximately dissected into a 1 cm*1 cm cube and was placed on the drug. No coupling agent or loading substrate was used to transmit the vibrations from device into tissues. The inter-digital electrodes (IDTs) patterned on the lithium niobate (piezoelectric substrate) generated surface waves (SAW), which in turn drives the model drugs into the tissues. (FIG. 12)"}, "[2]": {"conditions": "rat, in vivo", "method": "All experiments were conducted in accordance with the ARVO Statement for Use of Animals in Ophthalmic and Vision Research and with approval from the ANU Animal Experimentation Ethics Committee (Ethics ID: A2014/56). Adult Wistar rats were utilised in all experiments, which were born and reared under normal lighting conditions (˜5 lux light) and aged between 90 and 120 post-natal days at the time of use. Wistar rats were anaesthetised with an intraperitoneal injection of ketamine (100 mg/kg; Troy Laboratories, NSW, Australia) and Xylazil (12 mg/kg; Troy Laboratories). Once anaesthetised, Systane eye drops (Alcon, TX, USA) were applied every 2 minutes to maintain corneal lubrication. Animals were placed on a heat blanket to maintain body temperature at 37° C. and a cotton eye loop was applied around the eye to expose the anterior surface.\nThe inventors' HFB device (with A.A Lab Systems A-301 HS HV amplifier and RIGOL DG4062 Function/Arbitrary Waveform Generator) was loaded with 0.2% Riboflavin-5-phosphate-sodium (Riboflavin-5-phosphate-sodium-5-phosphate sodium #30-1598-25GM; PCCA, TX, USA), made up in sterile saline (0.9% NaCl), and applied to the centre of the cornea for 5 minutes. The settings on the device were as follows: transducer—1.6 MHz; amplifier—DC offset=off position; waveform generator—60 KHz sine waveform. The device was run for 5 minutes at 0, 3, 11 or 13 voltage peak to peak (VPP). […] Therefore, an electric circuit between the device and the eye tissue was not created.\nFollowing delivery, the residual Riboflavin-5-phosphate-sodium was washed from the eye with normal saline. The animal was euthanized, the eyes removed and the eyes fixed in 4% paraformaldehyde for 5 minutes before being cryopreserved and immediately sectioned at 16 μm thickness.\nSections were visualised under a Nikon A1 confocal microscope using the green 488 channel and imaged using the 10× objective. Data analysis for quantification was performed with an n=3 with 8 regions per section, with the gain of the laser set to optimal fluorescence for the brightest section (gain setting 110) and maintained for all imaging."}, "[3]": {"conditions": "for SAW samples pixel intensity: SAW approximately 4V; for SAW samples pixel intensity / Control samples pixel intensity: 5 s exposure, 30 μg/ml; for Control samples pixel intensity: no acoustic waves (0 mV)", "procedure": "The SAW device 10 illustrated in FIG. 1 was used to controllably deliver albumin-fluorescein isothiocyanate (FITC-albumin) across epithelial membranes of pig lips. Fresh lips tissues from pigs were obtained from a slaughterhouse. The experiments were conducted within 2 hours after the animals were sacrificed. The porcine lips were exposed to FITC-albumin molecules with and without the acoustic waves. The exposure time was 5 s for both control and SAW experiments. The power or voltage was maintained at 0 mV (no voltage) for control, and approximately 4V for SAW experiments. The concentration and the amount of FITC-Albumin (30 μg/ml) used was maintained constant throughout the penetration depth study.\nThe fresh tissues were further snap frozen in isopentane chilled by liquid nitrogen with the aid of optimal cutting temperature compound (OCT) as the embedding medium. Samples were further wrapped in aluminium foil and stored at −80° C. until sectioned by a dermatome. The tissues were sectioned by a dermatome in a cryostat to create samples of contiguous layers of tissue of 50 μm thickness.\nFluorescent images of the samples were obtained and quantified using Image J software to calculate the normalised pixel intensity of the green channel."}},
  "note": "Where a name gives a salt, the structure may show the parent alone. Read-outs that look alike come from different tables or passages of the source.",
  "data": [
    {"compound": "O=C1OC2(c3ccc(O)cc3Oc3cc(O)ccc32)c2ccccc21", "note": "[Fluorescein, Fluorescein sodium salt]", "values": [
      {"measurement": "perfusion into pig lip tissue with SAW", "setting": "[1]", "result": "showed an improvement, especially for longer exposure time"},
      {"measurement": "passive diffusion into pig lip tissue (control sample)", "setting": "[1]", "result": "prevalent"}
    ]},
    {"compound": "Cc1cc2nc3c(=O)[nH]c(=O)nc-3n(C[C@H](O)[C@H](O)[C@H](O)COP(=O)([O-])O)c2cc1C.[Na+]", "note": "[Riboflavin-5-phosphate-sodium]", "values": [
      {"measurement": "concentrations in posterior iris, ciliary body and choroid", "setting": "[2]", "result": "significant concentrations"},
      {"measurement": "delivery to the posterior segment of the eye", "setting": "[2]", "result": "concentrated in the uveal tract"},
      {"measurement": "fluorescence in anterior chamber and vitreous", "setting": "[2]", "result": "did not show any fluorescence"},
      {"measurement": "increase in average relative fluorescence intensity (RFI), treated versus control cornea", "setting": "[2]", "result": "~4", "unit": "times"}
    ]},
    {"compound": "albumin-fluorescein isothiocyanate [FITC-albumin]", "values": [
      {"measurement": "depth of delivery across the epithelial layers of the pig lips", "setting": "[3]; SAW device, 5 s, tissue deeper than 500 μm not examined", "result": 500, "unit": "μm"},
      {"measurement": "diffusion through the layers of the pig lips", "setting": "[3]; control, no acoustic waves, 5 s", "result": "diffused evenly and uniformly through the layers of the pig lips"},
      {"measurement": "SAW samples pixel intensity", "setting": "[3]; layer 100 μm", "result": 37.192},
      {"measurement": "Control samples pixel intensity", "setting": "[3]; layer 100 μm", "result": 7.52},
      {"measurement": "SAW samples pixel intensity", "setting": "[3]; layer 150 μm", "result": 19.733},
      {"measurement": "Control samples pixel intensity", "setting": "[3]; layer 150 μm", "result": 7.421},
      {"measurement": "SAW samples pixel intensity", "setting": "[3]; layer 200 μm", "result": 19.835},
      {"measurement": "Control samples pixel intensity", "setting": "[3]; layer 200 μm", "result": 6.617},
      {"measurement": "SAW samples pixel intensity", "setting": "[3]; layer 250 μm", "result": 14.041},
      {"measurement": "Control samples pixel intensity", "setting": "[3]; layer 250 μm", "result": 6.126},
      {"measurement": "SAW samples pixel intensity", "setting": "[3]; layer 300 μm", "result": 11.229},
      {"measurement": "Control samples pixel intensity", "setting": "[3]; layer 300 μm", "result": 7.488},
      {"measurement": "SAW samples pixel intensity", "setting": "[3]; layer 350 μm", "result": 16.047},
      {"measurement": "Control samples pixel intensity", "setting": "[3]; layer 350 μm", "result": 7.405},
      {"measurement": "SAW samples pixel intensity", "setting": "[3]; layer 400 μm", "result": 12.274},
      {"measurement": "Control samples pixel intensity", "setting": "[3]; layer 400 μm", "result": 7.589},
      {"measurement": "SAW samples pixel intensity", "setting": "[3]; layer 450 μm", "result": 9.935},
      {"measurement": "Control samples pixel intensity", "setting": "[3]; layer 450 μm", "result": 6.886},
      {"measurement": "SAW samples pixel intensity", "setting": "[3]; layer 500 μm", "result": 9.958},
      {"measurement": "Control samples pixel intensity", "setting": "[3]; layer 500 μm", "result": 7.715},
      {"measurement": "perfusion into pig lip tissue with SAW", "setting": "[1]", "result": "outstanding perfusion compared to passive diffusion"},
      {"measurement": "passive diffusion into pig lip tissue (control sample)", "setting": "[1]", "result": "hardly any diffusion"}
    ]}
  ]
}
